In experiment [1] the target is T1, human PD-L1^ECD-hFc protein (human, UniProt Q9NZQ7 19-239, biotinylated in the PD-1 binding ELISA (Table 3) and in the Octet assay (Table 12)).
T1 construct: The plain and the biotinylated protein are kept as one molecule; also called PD-L1-hFc; Immunogen A; not shown: human IgG Fc fragment (hFc)
The experiment is described as follows: ELISA, 0.123 nM mAb. On the procedure:
(§1) 100 μL of the diluted recombinant proteins were added to each well of 96-well plate. The plates were sealed with plastic film and incubated at 4° C. overnight. The plates were washed twice with wash buffer (PBS+0.01% (v/v) Tween20), and incubated with blocking buffer (PBS+0.01% (v/v) Tween20+1% (w/w) BSA) at room temperature for 2 hours. The blocking buffer was aspirated away, and 100 μL of purified anti-PD-L1 antibodies were added to each well and incubated for 2 hours at 37° C. The plates were washed three times with wash buffer (PBS+0.01% (v/v) Tween20). HRP-conjugated secondary antibody (Sigma) was added to each well and incubated for 2 hours at 37° C. After the plates were washed three times with wash buffer, 100 μL TMB substrate were added to each well, and the plates were incubated for 30 minutes at room temperature. 100 μL stop solution (0.1N HCl) was added to each well to stop the reaction.

Experiment [2] has as its target T2, cyno PD-L1^ECD-hFc protein (cyno, UniProt G7PSE7 19-239).
T2 construct: also called Cyno Monkey PD-L1^ECD-hFc
The experiment is described as follows: ELISA, 0.123 nM mAb. Here is the method: as §1
A general note: In an ELISA, binding on a coated surface is turned into a signal by an enzyme label.

Experiment [3] concerns the target T3, full length human PD-L1 on cells (human, UniProt Q9NZQ7 19-290).
T3 construct: Also used as the target of the cell-based functional assays (transfected stimulator cells; PD-L1 of the cells in the mixed lymphocyte reaction); also called CHO-K1-hPD-L1; CHOK1-hPD-L1
Description: FACS CHO-K1-hPD-L1, 0.41 nM mAb. On the procedure: (§2) Other CHO-K1 were stably transfected with a pIRES plasmid containing the nucleic acid sequence encoding full length cyno PD-L1 to generate CHO-K1 cells stably expressing cyno PD-L1 (herein referred to as CHO-K1-cPD-L1 cells). […] The culture media was aspirated, and the cells were washed twice with HBSS (Hanks Balanced Salt Solution, Invitrogen). The cells were treated with enzyme-free cell dissociation solution (Versene solution, Invitrogen) and collected. The cells were then washed twice with HBSS, cell counts were determined, and cells were resuspended with HBSS at 2×10⁶ cells/mL. Goat serum was added to the cell suspension to a final concentration of 1%, and the cells were blocked for 30 minutes on ice and then washed twice with HBSS. The cells were collected after centrifugation and resuspended in FACS buffer (HBSS+1% BSA, v/v) at 2×10⁶ cells/mL. 100 μL of the cell suspension were then added to each well of 96-well plate. 100 μL of purified anti-PD-L1 antibodies from Example 2 were added to each well of the 96-well plate and incubated for 2 hours on ice. […] The samples were washed three times with FACS buffer, and 100 μL fixation buffer (4% paraformaldehyde v/v) were added to each well and incubated for 10 minutes. The cells were then washed twice with FACS buffer and resuspended in 100 μL FACS buffer. The mean fluorescence intensity (MFI) was determined using FACS Calibur (BD), and the results are shown in FIGS. 7-8 and in Tables 10-11.

The target of experiment [4] is T3, full length human PD-L1 on cells. The experiment is described as follows: FACS CHO-K1-hPD-L1, 1.23 nM mAb.
Experiment [5] has as its target T4, full length cyno PD-L1 on cells (cyno, UniProt G7PSE7 19-290).
T4 construct: also called CHO-K1-cPD-L1
The experiment is described as follows: FACS CHO-K1-cPD-L1, 0.14 nM mAb. On the procedure:
as §2

Experiment [6] deals with T4, full length cyno PD-L1 on cells. Description: FACS CHO-K1-cPD-L1, 33.33 nM mAb. Here is the method: as §2
For experiment [7], the target named is T1, human PD-L1^ECD-hFc protein. The experiment is described as follows: ELISA, 0.1 nM mAb. On the procedure:
as §1

For experiment [8] the target is unchanged. The experiment is described as follows: ELISA, 0.001 nM mAb. On the procedure: as §1
Experiment [9] shares this target. Description: ELISA, 0.0001 nM mAb. Here is the method:
as §1

Experiment [10] has as its target T3, full length human PD-L1 on cells. The experiment is described as follows: cell-based or functional assay.
Experiment [11] has the same target. Description: cell-based or functional assay. This is another data set of the same source.
Experiment [12] has the same target. Description: cell-based or functional assay. This is another data set of the same source.
Experiment [13] shares this target. Description: FACS CHO-K1-hPD-L1, 1 nM mAb.
The target is the same in experiment [14]. Description: FACS CHO-K1-hPD-L1, 10 nM mAb. On the procedure: as §2
In experiment [15] the target is T4, full length cyno PD-L1 on cells. Description: FACS CHO-K1-cPD-L1, 0.1 nM mAb. Here is the method: as §2
The target of experiment [16] is T3, full length human PD-L1 on cells. The experiment is described as follows: FACS CHO-K1-hPD-L1, 0.01 nM mAb.
The target is the same in experiment [17]. Description: FACS CHO-K1-hPD-L1, 0.001 nM mAb. Here is the method: as §2
The target is the same in experiment [18]. Description: FACS CHO-K1-hPD-L1, 0.0001 nM mAb. Here is the method: as §2

These results are taken from patent US20190010233A1 (JIANGSU HYAMAB PHARMACEUTICAL, published 2019).

Read-outs that look alike come from different tables or passages of the source.

T4 sequence (G7PSE7 entry or part of it limits assumed): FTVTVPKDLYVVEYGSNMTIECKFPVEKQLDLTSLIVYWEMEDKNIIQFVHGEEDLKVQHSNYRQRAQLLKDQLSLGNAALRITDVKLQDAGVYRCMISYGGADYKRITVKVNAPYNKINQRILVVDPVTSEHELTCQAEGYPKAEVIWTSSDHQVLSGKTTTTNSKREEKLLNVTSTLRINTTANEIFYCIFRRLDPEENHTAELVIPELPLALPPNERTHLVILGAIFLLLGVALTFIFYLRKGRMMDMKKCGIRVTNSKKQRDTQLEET
T2 sequence (G7PSE7 entry or part of it limits assumed): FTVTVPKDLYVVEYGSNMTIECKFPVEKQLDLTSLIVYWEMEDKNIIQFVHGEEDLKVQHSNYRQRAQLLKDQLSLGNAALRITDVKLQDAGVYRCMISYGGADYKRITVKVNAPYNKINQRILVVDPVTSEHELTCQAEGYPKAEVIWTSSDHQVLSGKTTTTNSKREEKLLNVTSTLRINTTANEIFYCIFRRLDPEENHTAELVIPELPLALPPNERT
T1 sequence (Q9NZQ7 19-239): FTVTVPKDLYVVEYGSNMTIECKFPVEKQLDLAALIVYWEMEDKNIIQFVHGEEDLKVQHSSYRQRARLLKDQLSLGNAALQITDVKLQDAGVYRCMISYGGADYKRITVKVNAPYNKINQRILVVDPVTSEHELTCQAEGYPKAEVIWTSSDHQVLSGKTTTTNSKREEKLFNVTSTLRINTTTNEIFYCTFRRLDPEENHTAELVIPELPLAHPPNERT
T3 sequence (Q9NZQ7 19-290 limits assumed): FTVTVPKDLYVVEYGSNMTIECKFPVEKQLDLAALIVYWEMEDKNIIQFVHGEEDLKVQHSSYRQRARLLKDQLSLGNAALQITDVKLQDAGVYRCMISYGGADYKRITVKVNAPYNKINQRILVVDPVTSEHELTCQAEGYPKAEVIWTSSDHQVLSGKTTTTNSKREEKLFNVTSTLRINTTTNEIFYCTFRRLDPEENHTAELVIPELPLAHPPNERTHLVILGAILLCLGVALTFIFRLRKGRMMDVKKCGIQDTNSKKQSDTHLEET

B1: chimeric anti-PD-L1 antibody 73D3G2 (antibody, V domains shown)
VH: EVQLVESGGGLVQPGGSLRLSCAASGFTFNTYWMNWVRQAPGRGLEWVANIKQDGGEKYYVDSVKGRFTISRDNAKNSLYLQMNSLRAEDTAMYYCARDGRSWYPDAFDIWGQGTVVTVSS
VL: DIQMTQSPSTLSASVGDRVTITCRASQSISTWLAWYQQKLGKAPKLLIYEVSILESGVPSRFSGSGSGTEFTLTISSLQPDDFATYYCQQYHSFSSFGGGTRVEIK
notes: Purified from hybridoma of Harbour H2L2 mice: human variable regions, rat constant regions
Turning to B1, the OD450 nm in [1] and in [2] was 0.72 each time. Further, the Mean fluorescence intensity stood at 87 in experiment [3], 106 in experiment [4], 44.3 in experiment [5] and 137 in experiment [6].

B2: chimeric anti-PD-L1 antibody 78A11F6 (antibody, V domains shown)
VH: EVQLVESGGGLVQPGGSLRLSCAASGITFSSYWMSWVRQTPGKGLEWVANIKQDGSEKYYVKSVKGRFTISRDNAKNSLYLQMNSLRAEDTAVYYCVRDRAVPGTGAFDIWGQGTMVIVSS
VL: DIQMTQSPSTLSASVGDRVTITCRASQSISNWLAWYQQKPGKAPKLLIYKASSLESGVPSRFSGSGSGTEFTLTISSLQPDDFATYYCQQYDSSLFTFGQGTKLEIK
notes: as for B1
For B2, the OD450 nm in experiment [1] was 0.84; in experiment [2] it was 0.91. The Mean fluorescence intensity is 105 in experiment [3], 174 in experiment [4], 38.3 in [5] and 143 in experiment [6].

B3: chimeric anti-PD-L1 antibody 73G11B3 (antibody, V domains shown)
VH: EVQLVESGGGLVQPGGSLRLSCVVSGFTFSSYWMSWVRQTPGKGLEWVANIKQDGSEKYYVDSVKGRLTISRDNAKNSLYLQMNSLRAEDTAVYYCVRDRAVPGTGALDIWGQGTMVTVSS
VL: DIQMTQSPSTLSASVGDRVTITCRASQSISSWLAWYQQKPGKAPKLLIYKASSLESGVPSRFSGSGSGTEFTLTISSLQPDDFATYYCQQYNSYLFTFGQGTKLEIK
notes: as for B1
Regarding B3, the values for the OD450 nm in experiment [7], in experiment [8] and in [9] were 0.88, 0.21 and 0.2, respectively. Also, the “IL-2 (pg/mL), MLR donor 2, 0.001 µg/mL mAb” value in experiment [10] stood at 54.2 pg/mL. In addition, the “IL-2 (pg/mL), MLR donor 2, 0.01 µg/mL mAb” value in [10] came out at 90.1 pg/mL. The “IL-2 (pg/mL), MLR donor 2, 0.1 µg/mL mAb” value in experiment [10] was 110 pg/mL. Besides, in experiment [10], the “IL-2 (pg/mL), MLR donor 2, 1 µg/mL mAb” value is 140 pg/mL. Further, the “IFN-γ (pg/mL), MLR, 0.001 µg/mL mAb” value is 1520 pg/mL in experiment [11] and 3340 pg/mL in experiment [12]. Besides, the results for the “IFN-γ (pg/mL), MLR, 0.01 µg/mL mAb” value in experiment [11] and in experiment [12] were 3750 pg/mL and 3390 pg/mL, respectively. The “IFN-γ (pg/mL), MLR, 0.1 µg/mL mAb” value is 5740 pg/mL in experiment [11] and 7480 pg/mL in experiment [12]. Besides, the “IFN-γ (pg/mL), MLR, 1 µg/mL mAb” value in experiment [11] amounted to 6480 pg/mL; in experiment [12], 16400 pg/mL. Also, in experiment [11], the “IFN-γ (pg/mL), MLR, 10 µg/mL mAb” value is 6950 pg/mL. Besides, the Mean fluorescence intensity was found to be 107 in experiment [13]; 213 in [14]; 19.8 in [15]; 3.96 in experiment [16]; 1.88 in [17]; 1.87 in experiment [18].

B4: chimeric anti-PD-L1 antibody 105C5D7 (antibody, V domains shown)
VH: EVQLVESGGGLVQPGGSLRLSCAASGFTFSSYWMSWVRQAPGKGLEWVANIKQDGNEKYYVDSVKGRFTISRDNAKNSLYLQMNSLRAEDTAVYYCARNIKWGDAFDIWGQGTMVTVSS
VL: DIQMTQSPSSLSASVGDRVTITCRASQSISSYLNWYQQKPGKAPKLLIYAASSLQSGVPSRFSGSGSGTDFTLTISSLQPEDFAIYSCQQSYSIPLTFGGGTKVEIK
notes: as for B1
As to B4, the OD450 nm in [1] and in experiment [2] was 0.67 each time. Besides, the Mean fluorescence intensity came to 137 in experiment [3], 206 in experiment [4], 42 in experiment [5] and 133 in experiment [6].

B5: chimeric anti-PD-L1 antibody 127D2F3 (antibody, V domains shown)
VH: EVQLVESGGGLVQPGGSLRLSCVASGFTFSSYWMSWVRQAPGKGLEWVANIKQDGSEKYYVDSVKGRLTISRDNAKNSLYLQMKSLRAEDTAVYYCARDPIYSSYFDYWGQGILVTVSS
VL: DIQMTQSPSSLSASVGDRVTITCRASQSISNYLNWYQQKPGKAPKLLIYAASSLQSGVPSRFSGSGSGTDFTLTISSLQPEDFAAYYCQQSYGIPFTFGPGTKVDIK
notes: as for B1
Consider B5, for which the OD450 nm was 1.65 in experiment [7], 0.24 in experiment [8] and 0.2 in experiment [9]. Also, the “IL-2 (pg/mL), MLR donor 2, 0.001 µg/mL mAb” value in experiment [10] came to 68.2 pg/mL. Also, the “IL-2 (pg/mL), MLR donor 2, 0.01 µg/mL mAb” value in [10] worked out at 100 pg/mL. In addition, the “IL-2 (pg/mL), MLR donor 2, 0.1 µg/mL mAb” value in experiment [10] worked out at 71.5 pg/mL. Besides, the “IL-2 (pg/mL), MLR donor 2, 1 µg/mL mAb” value in [10] was determined as 101 pg/mL. The entries for the “IFN-γ (pg/mL), MLR, 0.001 µg/mL mAb” value in experiment [11] and in experiment [12] were 599 pg/mL and 6040 pg/mL, respectively. For the same molecule, the entries for the “IFN-γ (pg/mL), MLR, 0.01 µg/mL mAb” value in [11] and in experiment [12] were 1560 pg/mL and 6280 pg/mL, respectively. In addition, the “IFN-γ (pg/mL), MLR, 0.1 µg/mL mAb” value in experiment [11] was determined as 3010 pg/mL; in experiment [12] it was 8760 pg/mL. Besides, the “IFN-γ (pg/mL), MLR, 1 µg/mL mAb” value is 2840 pg/mL in experiment [11] and 12600 pg/mL in [12]. The “IFN-γ (pg/mL), MLR, 10 µg/mL mAb” value in [11] turned out to be 4840 pg/mL. In addition, the Mean fluorescence intensity in experiment [13] amounted to 88.5; in experiment [14], 235; in experiment [15], 14.3; in experiment [16], 5.31; in [17] it was 2.1; in experiment [18] it was 4.04.
